In EP0332424A2 (dated 1991):
One block for each binder: values may come before it.

Assays:
[1] = target: T1, human carcinoembryonic antigen (human, UniProt P06731 35-685, 125I label (125I-CEA, the tracer in the radioimmunoassay)); assay: solid phase radioimmunoassay: culture supernatant, 125I-CEA, Sepharose-bound goat anti-human IgG
T1 construct: Used as a 125I-labelled tracer; also called CEA
T1 sequence (looked up): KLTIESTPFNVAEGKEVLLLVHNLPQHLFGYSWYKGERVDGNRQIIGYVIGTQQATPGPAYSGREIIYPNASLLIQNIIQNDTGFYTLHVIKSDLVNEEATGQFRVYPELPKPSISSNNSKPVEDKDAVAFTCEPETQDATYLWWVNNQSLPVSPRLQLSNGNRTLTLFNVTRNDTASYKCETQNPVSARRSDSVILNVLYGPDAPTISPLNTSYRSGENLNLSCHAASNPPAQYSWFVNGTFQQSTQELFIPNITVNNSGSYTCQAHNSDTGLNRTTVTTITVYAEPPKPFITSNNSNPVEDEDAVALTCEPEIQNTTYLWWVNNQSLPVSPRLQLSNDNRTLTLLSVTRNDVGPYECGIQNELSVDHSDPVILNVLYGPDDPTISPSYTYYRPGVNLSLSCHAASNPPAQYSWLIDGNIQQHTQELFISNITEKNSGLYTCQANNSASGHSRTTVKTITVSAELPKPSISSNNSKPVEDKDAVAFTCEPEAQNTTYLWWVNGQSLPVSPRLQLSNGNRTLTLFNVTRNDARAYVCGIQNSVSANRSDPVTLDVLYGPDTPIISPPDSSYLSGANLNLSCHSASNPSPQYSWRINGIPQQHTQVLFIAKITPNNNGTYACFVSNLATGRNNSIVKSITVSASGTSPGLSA

[2] = target: T1, human carcinoembryonic antigen; assay: affinity comparison by radioimmunoassay and Scatchard analysis; Ka not given

binding result [1]: binds
B1: chimeric antibody XCEM 449 (antibody, V domains shown)
VH: DVQLVESGGGLVQPGGSRKLSCAASGFTFSNFGMHWIRQAPEKGLEWVAYISGGSSTIYYADTVKGRFTISRDNPRNTLFLQMTSLRSEDTAMFYCARDYYANNYWYFDVWGAGTTVTVSS
VL: DIVMTQSQKFMSTSVGDRVSITCKASQNVRTAVAWYQQKPGQSPKALIYLASNRYTGVPDRFTGSGSGTDFTLTITNVQSEDLADYFCLQHWNYPLTFGAGTKLELKR
notes: the one-letter code is converted from the printed three-letter code; also called CEM-chimeric antibody; chimeric CEM antibody

binding result [2]: binds
B2: murine monoclonal antibody of hybridoma CEM 231.6.7 (antibody, V domains shown)
VH: B1 VH
VL: B1 VL
notes: also called murine antibody counterparts; ATCC HB9620
